Columns and labels:
[1] = target: T1, Human FcRn expressed on MDCK II clone 15 cells (human FcRn and human B2M) (human, UniProt P55899 24-365); assay: quantitative flow cytometry, AlexaFluor 488-labelled antibody on MDCK II clone 15 cells, pH 6.0, mean of n=3
T1 construct: whole, on cells
Experimental: (§1) Specific binding of antibody to FcRn across a range of antibody concentrations was used to determine KD.
(§2) The final antibody concentrations ranged from 400 nM to 0.003 nM. The cells were washed in ice cold Facs buffer then analysed by flow cytometry using a Guava flow cytometer (Millipore, UK). Titration data sets were also produced for isotype control antibodies for each antibody format to determine non-specific binding. The number of moles of bound antibody was calculated using interpolated values from a standard curve generated from beads comprised of differing amounts of fluorescent dye. Geometric mean fluorescence values were determined in the flow cytometric analyses of cells and beads. Non-specific binding was subtracted from the anti-FcRn antibody values and the specific binding curve generated was analysed by non-linear regression using a one-site binding equation (Graphpad Prism®) to determine the KD. Data is representative of 3 experiments.

[2] = target: T2, Human FcRn extracellular domain (non-covalent complex of human FcRn alpha chain extracellular domain and … (human, UniProt P55899 24-297; P61769 21-119); assay: SPR Biacore T200, IgG4P captured by anti-human Fc, hFcRn ECD/b2M as analyte, pH 6.0, run 1
T2 construct: also called hFcRn; hFcRn alpha chain ECD region with human beta 2 microglobulin
Experimental: (§3) Biomolecular interaction analysis using surface plasmon resonance technology (SPR) was performed on a Biacore T200 system (GE Healthcare) and binding to human FcRn extracellular domain determined.
(§4) The surface was regenerated by 2×60 s 50 mM HCl at 10 μl/min for the running buffer at pH6 or by 60 s 40 mM HCl and 30 s 10 mM NaOH for the running buffer at pH7.4. The data was analysed using T200 evaluation software (version 1.0) using the 1:1 binding model with local Rmax.

[3] = target: T2, Human FcRn extracellular domain …; assay: SPR Biacore T200, IgG4P captured by anti-human Fc, hFcRn ECD/b2M as analyte, pH 6.0, run 3
Experimental: as §3, §4

[4] = target: T2, Human FcRn extracellular domain …; assay: SPR Biacore T200, IgG4P captured by anti-human Fc, hFcRn ECD/b2M as analyte, pH 6.0, mean of 3
Experimental: as §3, §4

[5] = target: T2, Human FcRn extracellular domain …; assay: SPR Biacore T200, IgG4P captured by anti-human Fc, hFcRn ECD/b2M as analyte, pH 7.4, run 3
Experimental: as §3, §4

[6] = target: T2, Human FcRn extracellular domain …; assay: SPR Biacore T200, IgG4P captured by anti-human Fc, hFcRn ECD/b2M as analyte, pH 7.4, mean of 3
Experimental: as §3, §4

[7] = target: T2, Human FcRn extracellular domain …; assay: SPR Biacore T200, IgG4P captured by anti-human Fc, hFcRn ECD/b2M as analyte, pH 7.4, run 1
Experimental: as §3, §4

[8] = target: T2, Human FcRn extracellular domain …; assay: SPR Biacore T200, IgG4P captured by anti-human Fc, hFcRn ECD/b2M as analyte, pH 7.4, run 2
Experimental: as §3, §4

[9] = target: T3, Cynomolgus macaque FcRn expressed on MDCK II clone 40 cells (cynomolgus macaque FcRn and B2M) (cynomolgus macaque, UniProt Q8SPV9 24-365; Q8SPW0 21-119); assay: quantitative flow cytometry on MDCK II clone 40 cells, pH 6.0, mean of n=3
T3 construct: whole, on cells; also called Cyno FcRn
Text: as §1

[10] = target: T1, Human FcRn expressed on MDCK II clone …; assay: cell-based or functional assay
[11] = target: T1, Human FcRn expressed on MDCK II clone …; assay: quantitative flow cytometry, AlexaFluor 488-labelled antibody on MDCK II clone 15 cells, pH 7.4, mean of n=3
Experimental: as §1, §2

[12] = target: T2, Human FcRn extracellular domain …; assay: SPR Biacore T200, IgG4P captured by anti-human Fc, hFcRn ECD/b2M as analyte, pH 6.0, run 2
Experimental: as §3, §4

[13] = target: T3, Cynomolgus macaque FcRn expressed on …; assay: quantitative flow cytometry on MDCK II clone 40 cells, pH 7.4, mean of n=3

T3 sequence (Q8SPV9 24-365, chain 1 of 2): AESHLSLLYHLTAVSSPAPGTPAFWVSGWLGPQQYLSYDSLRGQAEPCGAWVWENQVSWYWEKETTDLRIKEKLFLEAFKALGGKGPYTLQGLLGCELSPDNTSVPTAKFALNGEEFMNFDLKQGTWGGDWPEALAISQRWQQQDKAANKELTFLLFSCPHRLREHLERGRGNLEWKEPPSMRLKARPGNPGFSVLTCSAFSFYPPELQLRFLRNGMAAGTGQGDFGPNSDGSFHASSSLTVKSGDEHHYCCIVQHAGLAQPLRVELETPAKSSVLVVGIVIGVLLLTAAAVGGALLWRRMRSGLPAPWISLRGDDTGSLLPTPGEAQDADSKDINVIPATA
T3 sequence (Q8SPW0 21-119, chain 2 of 2): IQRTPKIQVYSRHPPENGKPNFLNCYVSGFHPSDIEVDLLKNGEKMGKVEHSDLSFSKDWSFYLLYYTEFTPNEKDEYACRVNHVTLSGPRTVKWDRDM

B1: CA170_1638.g49 IgG4P (antibody)
heavy: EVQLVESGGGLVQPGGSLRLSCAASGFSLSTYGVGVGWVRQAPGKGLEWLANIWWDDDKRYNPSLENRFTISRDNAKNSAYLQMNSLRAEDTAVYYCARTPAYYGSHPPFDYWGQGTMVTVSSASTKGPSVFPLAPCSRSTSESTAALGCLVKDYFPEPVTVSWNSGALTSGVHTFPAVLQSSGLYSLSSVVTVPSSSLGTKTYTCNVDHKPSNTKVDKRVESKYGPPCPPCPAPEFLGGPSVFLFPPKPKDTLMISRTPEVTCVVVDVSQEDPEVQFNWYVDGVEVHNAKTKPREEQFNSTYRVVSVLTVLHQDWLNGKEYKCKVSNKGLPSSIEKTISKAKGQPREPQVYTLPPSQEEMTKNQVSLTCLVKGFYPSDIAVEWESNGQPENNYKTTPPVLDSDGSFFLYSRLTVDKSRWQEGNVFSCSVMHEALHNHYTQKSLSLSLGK
light: DIQMTQSPSSLSASVGDRVTITCRTSEDIYTNLAWYQQKPGKVPKLLIYVAKTLQEGVPSRFSGSGSGTHYTLTISSLQPEDVATYYCLQGFKFPWTFGGGTKVEIKRTVAAPSVFIFPPSDEQLKSGTASVVCLLNNFYPREAKVQWKVDNALQSGNSQESVTEQDSKDSTYSLSSTLTLSKADYEKHKVYACEVTHQGLSSPVTKSFNRGEC
notes: In the flow cytometry assays the antibody was labelled with AlexaFluor 488; also called 1638.49 g IgG4
Kd [1]: 0.22 nM
Kd [2]: 0.129 nM
koff [2]: 0.000143 s⁻¹
kon [2]: 1.1e+06 M⁻¹ s⁻¹
Kd [3]: 0.127 nM
koff [3]: 0.00014 s⁻¹
kon [3]: 1.11e+06 M⁻¹ s⁻¹
Kd [4]: 0.127 nM
koff [4]: 0.000141 s⁻¹
kon [4]: 1.1e+06 M⁻¹ s⁻¹
Kd [5]: 0.0293 nM
koff [5]: 2.82e-05 s⁻¹
kon [5]: 962000 M⁻¹ s⁻¹
Kd [6]: 0.0294 nM
koff [6]: 2.84e-05 s⁻¹
kon [6]: 967000 M⁻¹ s⁻¹
Kd [7]: 0.0257 nM
koff [7]: 2.51e-05 s⁻¹
kon [7]: 975000 M⁻¹ s⁻¹
Kd [8]: 0.0332 nM
koff [8]: 3.19e-05 s⁻¹
kon [8]: 962000 M⁻¹ s⁻¹
Kd [9]: 0.43 nM
IgG recycling in MDCK II clone 15 cells, EC50 [10]: 0.31 nM
apical to basolateral transcytosis of human IgG in MDCK II clone 15 cells, EC50 [10]: 2.4 nM
Kd [11]: 0.2 nM
Kd [12]: 0.126 nM
koff [12]: 0.000139 s⁻¹
kon [12]: 1.1e+06 M⁻¹ s⁻¹
Kd [13]: 0.3 nM

B2: CA170_1638.g49 FabFv (bispecific antibody)
heavy: EVQLVESGGGLVQPGGSLRLSCAASGFSLSTYGVGVGWVRQAPGKGLEWLANIWWDDDKRYNPSLENRFTISRDNAKNSAYLQMNSLRAEDTAVYYCARTPAYYGSHPPFDYWGQGTMVTVSSASTKGPSVFPLAPSSKSTSGGTAALGCLVKDYFPEPVTVSWNSGALTSGVHTFPAVLQSSGLYSLSSVVTVPSSSLGTQTYICNVNHKPSNTKVDKKVEPKSCSGGGGSGGGGTGGGGSEVQLLESGGGLVQPGGSLRLSCAVSGIDLSNYAINWVRQAPGKCLEWIGIIWASGTTFYATWAKGRFTISRDNSKNTVYLQMNSLRAEDTAVYYCARTVPGYSTAPYFDLWGQGTLVTVSS
light: DIQMTQSPSSLSASVGDRVTITCRTSEDIYTNLAWYQQKPGKVPKLLIYVAKTLQEGVPSRFSGSGSGTHYTLTISSLQPEDVATYYCLQGFKFPWTFGGGTKVEIKRTVAAPSVFIFPPSDEQLKSGTASVVCLLNNFYPREAKVQWKVDNALQSGNSQESVTEQDSKDSTYSLSSTLTLSKADYEKHKVYACEVTHQGLSSPVTKSFNRGECGGGGSGGGGSGGGGSDIQMTQSPSSVSASVGDRVTITCQSSPSVWSNFLSWYQQKPGKAPKLLIYEASKLTSGVPSRFSGSGSGTDFTLTISSLQPEDFATYYCGGGYSSISDTTFGCGTKVEIKRT
apical to basolateral transcytosis of human IgG in MDCK II clone 15 cells, EC50 [10]: 0.42 nM

— patent publication US20190270811A1 (UCB, published 2019)
